From paper PMC4388654, “A Humanized Leucine Zipper-TRAIL Hybrid Induces Apoptosis of Tumors both In Vitro and In Vivo” (PLoS ONE, 2015)

Biological target: the molecule itself
Assay: AUC; sedimentation equilibrium; 0.5, 0.17 and 0.06 mg/ml in PBS, 20°C, 18,000 rpm, 24 h; Monomer-Nmer model (HeteroAnalysis); monomer to trimer

B1: ATF7-pII leucine zipper-TRAIL (ligand, human)
chain: VSSIEKKIEEITSQIIQISNEITLIRNEIAQIKQKGSGQRVAAHITGTRGRSNTLSSPNSKNEKALGRKINSWESSRSGHSFLSNLHLRNGELVIHEKGFYYIYSQTYFRFQEEIKENTKNDKQMVQYIYKYTSYPDPILLMKSARNSCWSKDAEYGLYSIYQGGIFELKENDRIFVSVTNEHLIDMDHEASFFGAFLVG
notes: linker between the leucine zipper and TRAIL; Tumor necrosis factor-Related Apoptosis-Inducing Ligand (TRAIL), human, Gln120-Gly281; No tag is stated; the calculated trimer mass of 69.0 kDa fits zipper + linker + TRAIL 120-281 without a tag; also called ATF7-TRAIL; ATF7 leucine zipper-TRAIL; source: P. pastoris (pGAPZα), secreted, purified (Co2+-metal chelating chromatography, 0 to 25 mM imidazole …)
In the case of B1, the “stoichiometry N” value is reported as 3.
